Reference: the supplement of paper PMC9732359
± gives the uncertainty stated by the source.

assay: protein stability index of a GFP-peptide fusion (yeast GPS) (PSI 1-4); higher = more stable; sorted into four equal gates, so the index is relative within each strain; conditions: doa10∆
In short: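 Tiled 17-residue peptides from yeast proteins were fused downstream of GFP on a plasmid that also expresses Cherry, and the pooled library was carried in yeast. Mid-log cultures grown in leucine-free medium were sorted into four equal gates by GFP/Cherry fluorescence ratio. Plasmids from each gate were PCR-amplified and Illumina-sequenced, and reads were assigned to strains by barcodes. Each peptide's protein stability index is the sum, over gates, of the gate's read frequency multiplied by its gate number.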

Sequence	protein stability index
EIGPSPTLAGMAQRTLK [FAS2]	2.392 ± 0.02
EIIGGGSKSASKQTPQP [ISW2]	2.95 ± 0.081
EIILDFLQDKVQIKDVN [CSI1]	3.12 ± 0.086
EIKGASETPLQKTVNLK [RPN4]	3 ± 0.12
EIKKWTAVAFWSWDIAV [HRT1]	1.23 ± 0.076
EILEHICYDVNDWQMLE [RPB2]	2.84 ± 0.12
EILGTAQSVGCRVDFKN [RPL12A]	2.12 ± 0.06
EILNIFKHISVKDFTSL [RPO21]	2.41 ± 0.14
EILTSVDVLGTHSQTGT [SIR4]	2.93 ± 0.069
EINTALNTLLVTSADSN [SWI1]	2.05 ± 0.065
EINWRHASFLCSFITQD [FAS1]	2.1 ± 0.15
EIPETGEYSVKLLKGAT [FAS2]	3.18 ± 0.12
EIPSEDQNEFLLERTRE [FAS2]	3.33 ± 0.094
EISSQIEILVKDNECSS [RRI2]	1.5 ± 0.11
EITHPPSTTDDENGDKN [SWI3]	3.09 ± 0.074
EIYYDPDPRSTVIPEDE [RPO21]	3.04 ± 0.11
EKEEEAKEESDDDMGFG [RPP2B]	3.05 ± 0.2
EKERLESLTKEISAAHN [SMC3]	3 ± 0.26
EKFDLERVTALKNCKIS [SMC1]	3.44 ± 0.2
EKFPNDVKLLNPIDIKR [RPP1]	2.91 ± 0.062
EKGPQVCAKLFGNIQKV [RPO21]	2.63 ± 0.08
EKKPASKAPAEKKPAAK [HTB1]	3.13 ± 0.08
EKLSSEIENLDKELRKT [YIL149C/MLP2]	3.12 ± 0.11
EKLTMVFQDNVYKIYNH [SIN4]	2.08 ± 0.06
EKPAVKSYASLLAQLNG [RPT3]	2.8 ± 0.082

Sequence	protein stability index
EKPLVVPVKLEEIKTVD [RRP6]	2.52 ± 0.13
EKRWNDELELEDAIHIA [PRE8]	3.35 ± 0.17
EKSAYKFFHNGMIYNKL [FAS2]	2.92 ± 0.086
EKSKALESEIASSSAKL [SMC2]	2.64 ± 0.071
EKVRPTPGEVASKAIVQ [MCD1]	3.16 ± 0.14
EKVSSVLSALEGKSVDE [RPP2A]	2.57 ± 0.077
ELAVENPLAKTMADAVR [SEC65]	3 ± 0.048
ELCKKNESKIKELNEKI [RPN7]	3.2 ± 0.12
ELEHLTKKSKLESTKAE [DSN1]	3.37 ± 0.1
ELEKKYHGNECEINYYE [SRB8]	3.04 ± 0.11
ELIIDKVTCSSNSSSSP [MED1]	2.72 ± 0.058
ELIVSEEIPINSSEQES [SIR3]	2.28 ± 0.054
ELKKKRKIKRLEKFLQG [SRP72]	3.22 ± 0.073
ELQKIWQIEEAGNSQIT [SRB5]	2.77 ± 0.08
ELQKIYDRHQSSSKQQS [SMC4]	3.33 ± 0.084
ELRSLSKKDFKIIDNPK [YMR129W/POM152]	2.46 ± 0.058
ELSKEEKERLESLTKEI [SMC3]	3.01 ± 0.13
ELSTDIILKTRQINKLI [SRB7]	1.2 ± 0.13
ELTKEEAMYKLQLASLQ [SMC3]	2.89 ± 0.1
ELVIRLEKDAADCQAEL [YIL149C/MLP2]	2.93 ± 0.25
ELVKSYSWLLFEASCME [YJR042W/NUP85]	2.96 ± 0.28
EMERIVKNLTKYLSDIM [SRP68]	2.76 ± 0.25
ENDVKPISIEAPQFYRY [SWI3]	2.55 ± 0.038
ENGERKLYDAKRYTSEG [YMR129W/POM152]	3.35 ± 0.12
ENIIIVGGTTSISGFKE [ARP9]	2.13 ± 0.092

Sequence	protein stability index
ENKVMLPRCSKEEFRLM [RRI2]	1.8 ± 0.06
ENLVQGNGNVSESDIIN [YCG1]	3.78 ± 0.29
ENTPEPDLPALEASYSK [SMC4]	2.36 ± 0.12
ENVLAIGIAGAHRVRDL [SKI6]	1.97 ± 0.065
ENVQIGEDFMEVDYEDK [SRB4]	3.48 ± 0.13
EPFTILGAVAGLIPYPH [RET1]	2.17 ± 0.063
EPKLFRMRIFASNEVIA [RPL20A]	2.19 ± 0.087
EQERKELEKYNELERNR [SMC3]	3.14 ± 0.14
EQFLETDSDFAKYHAKL [SRP68]	2.83 ± 0.07
EQFPFYLHDNASKVLLK [IRR1]	2.45 ± 0.081
EQQVAEEATTEEAGEEE [RPS0A]	2.89 ± 0.14
EQSKEVGDVVGGALDNP [BRN1]	3.29 ± 0.091
EQVRKMYQEWEDETVKV [NSL1]	3.7 ± 0.09
EQYIQELDKREDMIDQV [SMC3]	3.23 ± 0.065
EQYTKKINSWDQVLVKG [YJL041W/NSP1]	1.72 ± 0.095
ERAARVVKGRVEKTLLS [RPO31]	3.37 ± 0.19
EREIMNDHSKSANPKKT [SWI3]	3.29 ± 0.077
ERELISNIEQTESLRVE [YIL149C/MLP2]	3.34 ± 0.063
EREQCRAGGAAASLIMP [PRE7]	3.02 ± 0.24
ERIINVGVIGPLHSGKT [SNU114]	2.87 ± 0.12
ERKEREDFQKRQQKLLE [SWI1]	3.27 ± 0.073
ERKSKTYVITKNGKIYL [RET1]	2.76 ± 0.051
ERQIFLEACIVRIMKAK [CDC53]	1.64 ± 0.051
ERRLQTQVYKLGLAKSV [RPS9A]	1.29 ± 0.067
ERSAGNIVQVFKKAAPS [RPB2]	2.6 ± 0.12

same assay, conditions: pdr5∆

Sequence	protein stability index
EIGPSPTLAGMAQRTLK [FAS2]	2.559 ± 0.021
EIIGGGSKSASKQTPQP [ISW2]	3.08 ± 0.092
EIILDFLQDKVQIKDVN [CSI1]	2.83 ± 0.055
EIKGASETPLQKTVNLK [RPN4]	3.42 ± 0.13
EIKKWTAVAFWSWDIAV [HRT1]	1.7 ± 0.073
EILEHICYDVNDWQMLE [RPB2]	3.02 ± 0.086
EILGTAQSVGCRVDFKN [RPL12A]	2.25 ± 0.06
EILNIFKHISVKDFTSL [RPO21]	2.23 ± 0.12
EILNLSTQELQTRAKLL [RPT5]	2.18 ± 0.18
EILTSVDVLGTHSQTGT [SIR4]	2.76 ± 0.063
EINTALNTLLVTSADSN [SWI1]	2.16 ± 0.048
EINWRHASFLCSFITQD [FAS1]	2.42 ± 0.12
EIPETGEYSVKLLKGAT [FAS2]	3.46 ± 0.089
EIPSEDQNEFLLERTRE [FAS2]	3.3 ± 0.12
EISSQIEILVKDNECSS [RRI2]	1.25 ± 0.15
EITHPPSTTDDENGDKN [SWI3]	3.07 ± 0.072
EIYYDPDPRSTVIPEDE [RPO21]	3.07 ± 0.21
EKEEEAKEESDDDMGFG [RPP2B]	3.29 ± 0.14
EKERLESLTKEISAAHN [SMC3]	3.22 ± 0.15
EKFPNDVKLLNPIDIKR [RPP1]	2.97 ± 0.041
EKGPQVCAKLFGNIQKV [RPO21]	2.29 ± 0.057
EKKPASKAPAEKKPAAK [HTB1]	3.19 ± 0.063
EKLSSEIENLDKELRKT [YIL149C/MLP2]	3.21 ± 0.12
EKLTMVFQDNVYKIYNH [SIN4]	2.53 ± 0.053

Sequence	protein stability index
EKPAVKSYASLLAQLNG [RPT3]	2.6 ± 0.097
EKPLVVPVKLEEIKTVD [RRP6]	2.42 ± 0.07
EKRWNDELELEDAIHIA [PRE8]	3.25 ± 0.1
EKSAYKFFHNGMIYNKL [FAS2]	2.81 ± 0.07
EKSKALESEIASSSAKL [SMC2]	2.96 ± 0.078
EKVRPTPGEVASKAIVQ [MCD1]	2.42 ± 0.084
EKVSSVLSALEGKSVDE [RPP2A]	2.09 ± 0.049
ELAVENPLAKTMADAVR [SEC65]	2.94 ± 0.039
ELCKKNESKIKELNEKI [RPN7]	2.73 ± 0.098
ELEHLTKKSKLESTKAE [DSN1]	3.08 ± 0.081
ELEKKYHGNECEINYYE [SRB8]	3.19 ± 0.086
ELIIDKVTCSSNSSSSP [MED1]	2.75 ± 0.065
ELIVSEEIPINSSEQES [SIR3]	2.24 ± 0.051
ELKKKRKIKRLEKFLQG [SRP72]	3.24 ± 0.091
ELQKIWQIEEAGNSQIT [SRB5]	3.04 ± 0.11
ELQKIYDRHQSSSKQQS [SMC4]	3.33 ± 0.095
ELRSLSKKDFKIIDNPK [YMR129W/POM152]	2.6 ± 0.06
ELSKEEKERLESLTKEI [SMC3]	3.13 ± 0.15
ELSTDIILKTRQINKLI [SRB7]	1.19 ± 0.066
ELTKEEAMYKLQLASLQ [SMC3]	2.88 ± 0.068
ELVIRLEKDAADCQAEL [YIL149C/MLP2]	3.05 ± 0.18
EMERIVKNLTKYLSDIM [SRP68]	2.53 ± 0.099
ENDVKPISIEAPQFYRY [SWI3]	2.14 ± 0.039
ENGERKLYDAKRYTSEG [YMR129W/POM152]	2.92 ± 0.1

Sequence	protein stability index
ENIIIVGGTTSISGFKE [ARP9]	2.2 ± 0.06
ENKVMLPRCSKEEFRLM [RRI2]	2.1 ± 0.076
ENTPEPDLPALEASYSK [SMC4]	2.61 ± 0.091
ENVLAIGIAGAHRVRDL [SKI6]	2.21 ± 0.059
ENVQIGEDFMEVDYEDK [SRB4]	1.97 ± 0.17
EPFTILGAVAGLIPYPH [RET1]	2.13 ± 0.051
EPKLFRMRIFASNEVIA [RPL20A]	1.97 ± 0.054
EQERKELEKYNELERNR [SMC3]	3.05 ± 0.18
EQFLETDSDFAKYHAKL [SRP68]	2.94 ± 0.067
EQFPFYLHDNASKVLLK [IRR1]	2.47 ± 0.065
EQQVAEEATTEEAGEEE [RPS0A]	2.82 ± 0.24
EQSKEVGDVVGGALDNP [BRN1]	3.54 ± 0.078
EQVRKMYQEWEDETVKV [NSL1]	3.52 ± 0.083
EQYIQELDKREDMIDQV [SMC3]	3.03 ± 0.084
EQYTKKINSWDQVLVKG [YJL041W/NSP1]	2.29 ± 0.1
ERAARVVKGRVEKTLLS [RPO31]	3.27 ± 0.18
EREIMNDHSKSANPKKT [SWI3]	3.3 ± 0.084
ERELISNIEQTESLRVE [YIL149C/MLP2]	3.47 ± 0.078
EREQCRAGGAAASLIMP [PRE7]	2.92 ± 0.19
ERIINVGVIGPLHSGKT [SNU114]	2.57 ± 0.11
ERKEREDFQKRQQKLLE [SWI1]	3.32 ± 0.06
ERKSKTYVITKNGKIYL [RET1]	2.54 ± 0.057
ERQIFLEACIVRIMKAK [CDC53]	1.69 ± 0.048
